From patent US20250276076A1 (Seagen, published 2025)
One block for each binder: values may come before it.

Legend:
[1] = biological target: T1, human ALPP (on cells) (human, UniProt P05187 23-506); assay: flow cytometry on ALPP-expressing HEK293 cells
T1 construct: the construct in the cells is not further defined; also called placental alkaline phosphatase; PLAP
Experimental: (§1) Cynomolgus ALPP, human ALPP, ALPPL2, ALPI and ALPL-expressing HEK293 cells were used to evaluate specificity and binding affinity. Briefly, one hundred thousand target-expressing HEK293 cells were transferred to 96-well plates. Cells were pelleted by centrifugation and resuspended in 100 μL of PBS+2% w/v BSA. After blocking, cells were resuspended in PBS+2% w/v BSA with unlabeled monoclonal anti-ALPP/ALPPL2 antibodies ranging in concentration from 8 pM to 666 nM and incubated on ice for 30 minutes. Cells were washed twice in PBS and resuspended in R-PE labeled secondary goat anti-human or anti-mouse antibodies (Jackson Immunoresearch, West Grove, PA) for 30 minutes on ice. […] Fluorescence was analyzed using an Attune NxT flow cytometer, and the percent of saturated fluorescent signal was used to determine percent bound and to subsequently calculate apparent KD.

[2] = biological target: T2, human ALPPL2 (on cells) (human, UniProt P10696 20-503); assay: flow cytometry on ALPPL2-expressing HEK293 cells
T2 construct: the construct in the cells is not further defined; also called HEK-ALPPL2 cells; ALPPL2-expressing LoVo cells
T2 sequence (P10696 20-503 limits assumed): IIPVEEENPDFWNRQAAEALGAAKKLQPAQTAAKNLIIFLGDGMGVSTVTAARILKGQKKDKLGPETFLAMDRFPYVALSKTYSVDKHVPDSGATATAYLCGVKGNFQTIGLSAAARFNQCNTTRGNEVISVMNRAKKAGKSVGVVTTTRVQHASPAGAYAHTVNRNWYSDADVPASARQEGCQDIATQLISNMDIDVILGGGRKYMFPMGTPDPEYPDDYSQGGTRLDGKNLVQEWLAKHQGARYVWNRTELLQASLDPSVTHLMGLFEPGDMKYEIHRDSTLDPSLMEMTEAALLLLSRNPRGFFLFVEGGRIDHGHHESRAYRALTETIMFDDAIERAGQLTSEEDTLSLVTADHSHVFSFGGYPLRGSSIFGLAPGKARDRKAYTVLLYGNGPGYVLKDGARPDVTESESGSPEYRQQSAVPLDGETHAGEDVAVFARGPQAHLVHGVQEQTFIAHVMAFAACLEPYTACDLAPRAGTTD
Experimental: as §1

[3] = biological target: T1, human ALPP (on cells); assay: flow cytometry saturation binding on ALPP-expressing HEK293 cells (row 'nM Kd' of the table under the plot)
Experimental: as §1

[4] = biological target: T2, human ALPPL2 (on cells); assay: flow cytometry saturation binding on ALPPL2-expressing HEK293 cells (row 'nM Kd' of the table under the plot)
Experimental: as §1

[5] = biological target: T3, soluble human ALPP-Fc fusion dimer (human, UniProt P05187 23-506); assay: BLI (Octet), antibody on anti-human Fab-CH1 biosensors, hALPP Fc homodimer as analyte, pH 7.4, 37 °C, bivalent affinity
T3 construct: Made in CHO cells; also called hALPP; hALPP Fc
T3 sequence (P05187 23-506 limits assumed): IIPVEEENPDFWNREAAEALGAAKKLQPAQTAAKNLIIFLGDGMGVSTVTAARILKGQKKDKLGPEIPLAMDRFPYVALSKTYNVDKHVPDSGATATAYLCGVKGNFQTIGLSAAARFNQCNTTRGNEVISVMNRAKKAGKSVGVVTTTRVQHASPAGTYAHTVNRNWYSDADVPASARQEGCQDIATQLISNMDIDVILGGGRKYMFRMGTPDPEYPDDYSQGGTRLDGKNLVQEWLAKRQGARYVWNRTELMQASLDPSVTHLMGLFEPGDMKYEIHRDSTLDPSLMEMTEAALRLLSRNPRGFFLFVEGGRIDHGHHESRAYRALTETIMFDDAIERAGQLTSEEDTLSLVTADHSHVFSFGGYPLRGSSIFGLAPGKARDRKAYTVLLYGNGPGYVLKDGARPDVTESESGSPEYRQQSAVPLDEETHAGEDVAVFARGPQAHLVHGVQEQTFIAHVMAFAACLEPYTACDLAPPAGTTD
From the text: (§2) Soluble human ALPP-Fc and ALPPL2-Fc fusion dimer proteins were generated in CHO cells to be used as the analyte. […] After reference subtraction of the probe only curve, the data was globally fit with a 1:1 model with the Rmax sensor unlinked.

[6] = biological target: T3, soluble human ALPP-Fc fusion dimer; assay: BLI, antibody on FAB2G biosensors, ALPP-Fc dimer as analyte, bivalent, pH 6.0, 37 C
From the text: as §2
(§3) The only difference was the use of a different kinetic buffer (1% casein and 0.2% Tween20 in phosphate citrate pH 6.0).

[7] = biological target: T4, soluble human ALPPL2-Fc fusion dimer (human, UniProt P10696 20-503); assay: BLI, antibody on FAB2G biosensors, ALPPL2-Fc dimer as analyte, bivalent, pH 6.0, 37 C
T4 construct: Made in CHO cells; also called hALPPL2
T4 sequence (P10696 20-503 limits assumed): as the sequence (P10696 20-503 limits assumed) above
From the text: as §2, §3

[8] = biological target: T3, soluble human ALPP-Fc fusion dimer; assay: BLI (Octet Red 384), antibody on FAB2G biosensors, ALPP-Fc dimer as analyte, bivalent, pH 7.4, 37 C, 1:1 global fit
From the text: as §2

[9] = biological target: T4, soluble human ALPPL2-Fc fusion dimer; assay: BLI (Octet Red 384), antibody on FAB2G biosensors, ALPPL2-Fc dimer as analyte, bivalent, pH 7.4, 37 C, 1:1 global fit
From the text: as §2

[10] = biological target: T5, hscFcRN (biotinylated avi-tagged, fused with monomeric Fc) (human, UniProt P55899 24-297; P61769 21-119, limits assumed, biotin on avi tag); assay: BLI (Octet HTX, 30 °C), biotinylated hFcRN on streptavidin biosensors, ADC as analyte, 1:1 fit, pH 6.0
T5 construct: also called hFcRN; hscFcRN hmFc IHH A avi Biotin
From the text: (§4) Biotinylated avi-tagged human Fc receptors fused with monomeric Fc (designed and expressed at Seagen) were loaded onto high precision streptavidin biosensors (from ForteBio) to responses around 0.4 nm for all receptors except for hFcγR1 with responses around 1.2 nm. An initial baseline was completed in immobilization buffer (0.1% BSA, 0.02% Tween 20, 1×PBS pH 7.4) followed by a second baseline in kinetic buffer (1% casein, 0.2% Tween 20, 1×PBS pH 7.4 for hFcγRI, IIa, IIIa, and IIb interactions and 1% BSA+0.2% Tween 20, Phosphate Citrate pH 6.0 for hscFcRN interactions). […] Sensorgrams were generated on an Octet HTX system (ForteBio) at 30° C. and globally fitted with the 1:1 kinetic Langmuir isotherm model (Rmax unlinked) after a reference subtraction of the antigen-loaded, 0 nM analyte sensor. Negative controls with the highest concentration of antibodies and ADCs (20 μM) with no Fc receptor immobilized were also included to verify the absence of nonspecific binding of the analyte to the streptavidin biosensors themselves. Specific loading concentrations and times of each receptor to the streptavidin sensors and concentrations of titrated analytes are listed (Table 12 and Table 13).

[11] = biological target: T6, hFcγRIIIa V158 (biotinylated avi-tagged, fused with monomeric Fc) (human, UniProt P08637 17-208, biotin on avi tag); assay: BLI (Octet HTX, 30 °C), biotinylated Fc receptor on streptavidin biosensors, ADC as analyte, 1:1 fit, pH 7.4
T6 construct: also called hFcγRIIIa V158 hmFc AAG avi Biotin
T6 sequence (P08637 17-208 F176V): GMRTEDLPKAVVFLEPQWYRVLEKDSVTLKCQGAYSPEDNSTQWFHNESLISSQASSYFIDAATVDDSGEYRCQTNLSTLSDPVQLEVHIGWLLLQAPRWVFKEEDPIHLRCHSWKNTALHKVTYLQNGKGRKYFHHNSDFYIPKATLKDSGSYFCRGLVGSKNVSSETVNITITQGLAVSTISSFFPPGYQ
From the text: as §4

[12] = biological target: T7, hFcγRIIb (biotinylated avi-tagged, fused with monomeric Fc) (human, UniProt P31994 43-217, biotin on avi tag); assay: as above
T7 construct: also called hFcγRIIb hmFc AAG avi Biotin
T7 sequence (looked up): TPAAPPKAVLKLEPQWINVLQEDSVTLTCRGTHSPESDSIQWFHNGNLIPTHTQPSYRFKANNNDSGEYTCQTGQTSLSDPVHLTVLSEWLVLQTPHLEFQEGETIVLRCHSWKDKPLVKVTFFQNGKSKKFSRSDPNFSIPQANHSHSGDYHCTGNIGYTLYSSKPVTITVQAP
From the text: as §4

[13] = biological target: T8, hFcγRIIa R131 (biotinylated avi-tagged, fused with monomeric Fc) (human, UniProt P12318 34-217, biotin on avi tag); assay: as above
T8 construct: also called hFcγRIIa R131 hmFc AAG avi Biotin
T8 sequence (looked up): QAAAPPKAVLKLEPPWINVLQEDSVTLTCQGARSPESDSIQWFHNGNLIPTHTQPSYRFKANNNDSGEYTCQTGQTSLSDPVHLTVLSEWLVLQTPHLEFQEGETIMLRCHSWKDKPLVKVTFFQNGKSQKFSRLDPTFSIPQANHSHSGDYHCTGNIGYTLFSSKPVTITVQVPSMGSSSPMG
From the text: as §4

T1 sequence (P05187 23-506 limits assumed): as the sequence (P05187 23-506 limits assumed) above

Kd [5]: 3.5 nM
B2: h12F3 HFLD (antibody, V domains shown)
VH: EVQLVESGGGLVQPGRSLRLSCTASGFTFTDYYMSWVRQAPGKGLEWLALIRNKATGYTTEYSASVKGRFTISRDNSKSILYLQMNSLKTEDTAVYYCARASFYYDGKVLAYWGQGTLVTVSS
VL: DTQMTQSPSSLSASVGDRVTITCQASQDINKYIAWYQQKPGKAPKLLIYYTSSLQPGVPSRFSGSGSGTDYTFTISSLQPEDIATYYCLQYDNLYTFGQGTKLEIKR
notes: humanized 12F3 IgG variant

Kd [10]: 13.2 nM
Kd [13]: 7.3 µM
Kd [12]: 67 µM
B5: h12F3 HGLF-mc-vc-MMAE (antibody)
VH: not shown
VL: DTQMTQSPSSLSASVGDRVTITCQASQDINKYLAWYQYKPGKAPKLLIHYTSSLQSGVPSRFSGSGSGRDYTFTISSLQPEDIATYYCLQYDNLYTFGQGTKLEIKRTVAAPSVFIFPPSDEQLKSGTASVVCLLNNFYPREAKVQWKVDNALQSGNSQESVTEQDSKDSTYSLSSTLTLSKADYEKHKVYACEVTHQGLSSPVTKSFNRGEC
modifications: mc-vc-PABC-MMAE drug-linker on cysteines of the partially reduced antibody, 4 loads per antibody (chain and site not stated)
notes: antibody-drug conjugate of h12F3 HGLF; also called h12F3 HGLF-me-vc-MMAE; h12F3 HGLF-vc-MMAE(4); copies: 2 + 2

Further lines, the binder ahead of its results:

B1: murine antibody 12F3 (antibody, V domains shown)
VH: EVKLVESGGGLVQPGGSLSLSCAASGFTFTDYYMSWVRQPPGKALEWLALIRNKATGYTTEYSASVKGRFTISRDNSQSILYLQMNALRAEDSATYYCARASFYYDGKVLAYWGQGTLVTVSA
VL: DTQMTQSPSSLSASLGGKVTITCKASQDINKYIAWYQYKTGKGPRLLIHYTSTLQPGIPSRFSGSGSGRDYSFSISNLEPEDIATYYCLQYDNLYTFGGGTKLEIK
notes: mouse hybridoma antibody; also called SG82-12F3; m12F3
EC50 (read off the curve) [1]: ~0.3 µg/mL
EC50 (read off the curve) [2]: ~0.3 µg/mL
Kd [3]: 1.76 nM
Kd [4]: 1.48 nM

B3: h12F3 HGLF (antibody, V domains shown)
VH: EVQLVESGGGLVQPGRSLRLSCTASGFTFTDYYMSWVRQAPGKGLEWLALIRNKATGYTTEYTASVKGRFTISRDNSKSILYLQMNSLKTEDTAVYYCARASFYYDGKVLAYWGQGTLVTVSS
VL: DTQMTQSPSSLSASVGDRVTITCQASQDINKYLAWYQYKPGKAPKLLIHYTSSLQSGVPSRFSGSGSGRDYTFTISSLQPEDIATYYCLQYDNLYTFGQGTKLEIK
notes: Whole humanized IgG; also called humanized 12F3 HGLF; naked h12F3 antibody
Kd [6]: 6.8 nM
Kd [7]: 4.8 nM
Kd [8]: 0.13 nM
Kd [9]: 0.044 nM

B4: h12F3 HGLF-mp-dLAE-MMAE (antibody)
VH: not shown
VL: DTQMTQSPSSLSASVGDRVTITCQASQDINKYLAWYQYKPGKAPKLLIHYTSSLQSGVPSRFSGSGSGRDYTFTISSLQPEDIATYYCLQYDNLYTFGQGTKLEIKRTVAAPSVFIFPPSDEQLKSGTASVVCLLNNFYPREAKVQWKVDNALQSGNSQESVTEQDSKDSTYSLSSTLTLSKADYEKHKVYACEVTHQGLSSPVTKSFNRGEC
modifications: mp-dLAE-PABC-MMAE drug-linker on cysteines of the partially reduced antibody, 4 loads per antibody (chain and site not stated)
notes: antibody-drug conjugate of h12F3 HGLF; also called h12F3-mp-dLAE-MMAE; HGLF-dLAE-MMAE(4); copies: 2 + 2
Kd [10]: 10.6 nM
Kd [11]: 1100 nM
Kd [12]: 36 µM
